Numbered stars: 1 amine (or outer) side, 2 acyl side, 3 side chain; on linkers, the order of the positions; unused ones are H or OH. Bridge positions count the residues as written; N and C are the ends. Square brackets hold non-standard residues; d marks the D form. Side chains are listed from the residue outwards. Ends that are not written are not given here. * marks the point of attachment. C20 diacid = O=C(O)CCCCCCCCCCCCCCCCCCC(=O)*; γGlu = O=C(O)[C@H](CCC(=O)[*:2])N[*:1]
T1: human calcitonin receptor (human, UniProt P30988 25-474)
T1 sequence (looked up): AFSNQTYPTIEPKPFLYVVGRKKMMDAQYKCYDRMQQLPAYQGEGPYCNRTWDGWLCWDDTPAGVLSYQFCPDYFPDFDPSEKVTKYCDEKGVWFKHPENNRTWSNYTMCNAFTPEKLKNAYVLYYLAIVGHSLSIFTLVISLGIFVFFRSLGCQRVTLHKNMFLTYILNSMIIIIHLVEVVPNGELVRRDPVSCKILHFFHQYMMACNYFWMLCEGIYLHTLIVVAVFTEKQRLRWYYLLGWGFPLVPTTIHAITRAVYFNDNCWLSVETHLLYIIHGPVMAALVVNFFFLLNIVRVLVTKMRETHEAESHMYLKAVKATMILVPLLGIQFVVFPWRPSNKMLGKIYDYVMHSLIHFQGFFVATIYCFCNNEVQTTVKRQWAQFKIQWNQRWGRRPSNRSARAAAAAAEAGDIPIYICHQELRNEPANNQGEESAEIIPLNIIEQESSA


Target: T1, human calcitonin receptor
Experiment: cell-based or functional assay

Binder | hCTR funct. EC50 (pM)
K([γGlu-γGlu-C20 diacid])CNTATCATQRLANFLRHSSPNFGAIPSSTPVGPRTY-NH2 (disulfide 2-7; N-terminus assumed; SMILES CC[C@H](C)[C@H](NC(=O)[C@H](C)NC(=O)CNC(=O)[C@H](Cc1ccccc1)NC(=O)[C@H](CC(N)=O)NC(=O)[C@@H]1CCCN1C(=O)[C@H](CO)NC(=O)[C@H](CO)NC(=O)[C@H](Cc1c[nH]cn1)NC(=O)[C@H](CCCNC(=N)N)NC(=O)[C@H](CC(C)C)NC(=O)[C@H](Cc1ccccc1)NC(=O)[C@H](CC(N)=O)NC(=O)[C@H](C)NC(=O)[C@H](CC(C)C)NC(=O)[C@H](CCCNC(=N)N)NC(=O)[C@H](CCC(N)=O)NC(=O)[C@@H](NC(=O)[C@H](C)NC(=O)[C@@H]1CSSC[C@H](NC(=O)[C@@H](N)CCCCNC(=O)CC[C@H](NC(=O)CC[C@H](NC(=O)CCCCCCCCCCCCCCCCCCC(=O)O)C(=O)O)C(=O)O)C(=O)N[C@@H](CC(N)=O)C(=O)N[C@@H]([C@@H](C)O)C(=O)N[C@@H](C)C(=O)N[C@@H]([C@@H](C)O)C(=O)N1)[C@@H](C)O)C(=O)N1CCC[C@H]1C(=O)N[C@@H](CO)C(=O)N[C@@H](CO)C(=O)N[C@H](C(=O)N1CCC[C@H]1C(=O)N[C@H](C(=O)NCC(=O)N1CCC[C@H]1C(=O)N[C@@H](CCCNC(=N)N)C(=O)N[C@H](C(=O)N[C@@H](Cc1ccc(O)cc1)C(N)=O)[C@@H](C)O)C(C)C)[C@@H](C)O, synthetic peptide amide) | 8660
K([γGlu-γGlu-C20 diacid])CNTATCATQRLADFLRHSSPNFGAIPSSTNVGPRTY-NH2 (disulfide 2-7, synthetic peptide amide; also called compound 130) | 7280
K([γGlu-γGlu-C20 diacid])CNTATCATQRLA[dD]FLRHSSPNFGAIPSSTNVGSRTY-NH2 (disulfide 2-7; N-terminus assumed; SMILES CC[C@H](C)[C@H](NC(=O)[C@H](C)NC(=O)CNC(=O)[C@H](Cc1ccccc1)NC(=O)[C@H](CC(N)=O)NC(=O)[C@@H]1CCCN1C(=O)[C@H](CO)NC(=O)[C@H](CO)NC(=O)[C@H](Cc1c[nH]cn1)NC(=O)[C@H](CCCNC(=N)N)NC(=O)[C@H](CC(C)C)NC(=O)[C@H](Cc1ccccc1)NC(=O)[C@@H](CC(=O)O)NC(=O)[C@H](C)NC(=O)[C@H](CC(C)C)NC(=O)[C@H](CCCNC(=N)N)NC(=O)[C@H](CCC(N)=O)NC(=O)[C@@H](NC(=O)[C@H](C)NC(=O)[C@@H]1CSSC[C@H](NC(=O)[C@@H](N)CCCCNC(=O)CC[C@H](NC(=O)CC[C@H](NC(=O)CCCCCCCCCCCCCCCCCCC(=O)O)C(=O)O)C(=O)O)C(=O)N[C@@H](CC(N)=O)C(=O)N[C@@H]([C@@H](C)O)C(=O)N[C@@H](C)C(=O)N[C@@H]([C@@H](C)O)C(=O)N1)[C@@H](C)O)C(=O)N1CCC[C@H]1C(=O)N[C@@H](CO)C(=O)N[C@@H](CO)C(=O)N[C@H](C(=O)N[C@@H](CC(N)=O)C(=O)N[C@H](C(=O)NCC(=O)N[C@@H](CO)C(=O)N[C@@H](CCCNC(=N)N)C(=O)N[C@H](C(=O)N[C@@H](Cc1ccc(O)cc1)C(N)=O)[C@@H](C)O)C(C)C)[C@@H](C)O, synthetic peptide amide) | 100000
K([γGlu-γGlu-C20 diacid])CNTATCATQRLAEFLRHSSPNFGAIPSSTNVGRETY-NH2 (disulfide 2-7; N-terminus assumed; SMILES CC[C@H](C)[C@H](NC(=O)[C@H](C)NC(=O)CNC(=O)[C@H](Cc1ccccc1)NC(=O)[C@H](CC(N)=O)NC(=O)[C@@H]1CCCN1C(=O)[C@H](CO)NC(=O)[C@H](CO)NC(=O)[C@H](Cc1c[nH]cn1)NC(=O)[C@H](CCCNC(=N)N)NC(=O)[C@H](CC(C)C)NC(=O)[C@H](Cc1ccccc1)NC(=O)[C@H](CCC(=O)O)NC(=O)[C@H](C)NC(=O)[C@H](CC(C)C)NC(=O)[C@H](CCCNC(=N)N)NC(=O)[C@H](CCC(N)=O)NC(=O)[C@@H](NC(=O)[C@H](C)NC(=O)[C@@H]1CSSC[C@H](NC(=O)[C@@H](N)CCCCNC(=O)CC[C@H](NC(=O)CC[C@H](NC(=O)CCCCCCCCCCCCCCCCCCC(=O)O)C(=O)O)C(=O)O)C(=O)N[C@@H](CC(N)=O)C(=O)N[C@@H]([C@@H](C)O)C(=O)N[C@@H](C)C(=O)N[C@@H]([C@@H](C)O)C(=O)N1)[C@@H](C)O)C(=O)N1CCC[C@H]1C(=O)N[C@@H](CO)C(=O)N[C@@H](CO)C(=O)N[C@H](C(=O)N[C@@H](CC(N)=O)C(=O)N[C@H](C(=O)NCC(=O)N[C@@H](CCCNC(=N)N)C(=O)N[C@@H](CCC(=O)O)C(=O)N[C@H](C(=O)N[C@@H](Cc1ccc(O)cc1)C(N)=O)[C@@H](C)O)C(C)C)[C@@H](C)O, synthetic peptide amide) | 7430
K([γGlu-γGlu-C20 diacid])CNTATCATQRLADFLRHSSPNFGAIPSSTNVGPETY-NH2 (disulfide 2-7, synthetic peptide amide) | 843

Second part, the binder after the results:

hCTR funct. EC50 (pM) | Binder
7050 | K([γGlu-γGlu-C20 diacid])CNTATCATQRLAEFLRHSSPNFGAIPSSTNVGHETY-NH2 (disulfide 2-7; N-terminus assumed; SMILES CC[C@H](C)[C@H](NC(=O)[C@H](C)NC(=O)CNC(=O)[C@H](Cc1ccccc1)NC(=O)[C@H](CC(N)=O)NC(=O)[C@@H]1CCCN1C(=O)[C@H](CO)NC(=O)[C@H](CO)NC(=O)[C@H](Cc1c[nH]cn1)NC(=O)[C@H](CCCNC(=N)N)NC(=O)[C@H](CC(C)C)NC(=O)[C@H](Cc1ccccc1)NC(=O)[C@H](CCC(=O)O)NC(=O)[C@H](C)NC(=O)[C@H](CC(C)C)NC(=O)[C@H](CCCNC(=N)N)NC(=O)[C@H](CCC(N)=O)NC(=O)[C@@H](NC(=O)[C@H](C)NC(=O)[C@@H]1CSSC[C@H](NC(=O)[C@@H](N)CCCCNC(=O)CC[C@H](NC(=O)CC[C@H](NC(=O)CCCCCCCCCCCCCCCCCCC(=O)O)C(=O)O)C(=O)O)C(=O)N[C@@H](CC(N)=O)C(=O)N[C@@H]([C@@H](C)O)C(=O)N[C@@H](C)C(=O)N[C@@H]([C@@H](C)O)C(=O)N1)[C@@H](C)O)C(=O)N1CCC[C@H]1C(=O)N[C@@H](CO)C(=O)N[C@@H](CO)C(=O)N[C@H](C(=O)N[C@@H](CC(N)=O)C(=O)N[C@H](C(=O)NCC(=O)N[C@@H](Cc1c[nH]cn1)C(=O)N[C@@H](CCC(=O)O)C(=O)N[C@H](C(=O)N[C@@H](Cc1ccc(O)cc1)C(N)=O)[C@@H](C)O)C(C)C)[C@@H](C)O, synthetic peptide amide)
2830 | K([γGlu-γGlu-C20 diacid])CNTATCATQRLAEFLRHSSPNFGAIPSSTNVGPHTY-NH2 (disulfide 2-7 (inferred), synthetic peptide amide)
1280 | K([γGlu-γGlu-C20 diacid])CNTATCATQRLAEFLRHSSPNFGAILSSTPVGPETY-NH2 (disulfide 2-7, synthetic peptide amide)
8160 | K([γGlu-γGlu-C20 diacid])CNTATCATQRLAEFLRHSSPNFGAIPSSTNVGPRTY-NH2 (disulfide 2-7; N-terminus assumed; SMILES CC[C@H](C)[C@H](NC(=O)[C@H](C)NC(=O)CNC(=O)[C@H](Cc1ccccc1)NC(=O)[C@H](CC(N)=O)NC(=O)[C@@H]1CCCN1C(=O)[C@H](CO)NC(=O)[C@H](CO)NC(=O)[C@H](Cc1c[nH]cn1)NC(=O)[C@H](CCCNC(=N)N)NC(=O)[C@H](CC(C)C)NC(=O)[C@H](Cc1ccccc1)NC(=O)[C@H](CCC(=O)O)NC(=O)[C@H](C)NC(=O)[C@H](CC(C)C)NC(=O)[C@H](CCCNC(=N)N)NC(=O)[C@H](CCC(N)=O)NC(=O)[C@@H](NC(=O)[C@H](C)NC(=O)[C@@H]1CSSC[C@H](NC(=O)[C@@H](N)CCCCNC(=O)CC[C@H](NC(=O)CC[C@H](NC(=O)CCCCCCCCCCCCCCCCCCC(=O)O)C(=O)O)C(=O)O)C(=O)N[C@@H](CC(N)=O)C(=O)N[C@@H]([C@@H](C)O)C(=O)N[C@@H](C)C(=O)N[C@@H]([C@@H](C)O)C(=O)N1)[C@@H](C)O)C(=O)N1CCC[C@H]1C(=O)N[C@@H](CO)C(=O)N[C@@H](CO)C(=O)N[C@H](C(=O)N[C@@H](CC(N)=O)C(=O)N[C@H](C(=O)NCC(=O)N1CCC[C@H]1C(=O)N[C@@H](CCCNC(=N)N)C(=O)N[C@H](C(=O)N[C@@H](Cc1ccc(O)cc1)C(N)=O)[C@@H](C)O)C(C)C)[C@@H](C)O, synthetic peptide amide; also called compound 110)
2140 | K([γGlu-γGlu-C20 diacid])CNTATCATQRLAEFLRHSSPNFGAIPSSTNVGPNTF-NH2 (disulfide 2-7; N-terminus assumed; SMILES CC[C@H](C)[C@H](NC(=O)[C@H](C)NC(=O)CNC(=O)[C@H](Cc1ccccc1)NC(=O)[C@H](CC(N)=O)NC(=O)[C@@H]1CCCN1C(=O)[C@H](CO)NC(=O)[C@H](CO)NC(=O)[C@H](Cc1c[nH]cn1)NC(=O)[C@H](CCCNC(=N)N)NC(=O)[C@H](CC(C)C)NC(=O)[C@H](Cc1ccccc1)NC(=O)[C@H](CCC(=O)O)NC(=O)[C@H](C)NC(=O)[C@H](CC(C)C)NC(=O)[C@H](CCCNC(=N)N)NC(=O)[C@H](CCC(N)=O)NC(=O)[C@@H](NC(=O)[C@H](C)NC(=O)[C@@H]1CSSC[C@H](NC(=O)[C@@H](N)CCCCNC(=O)CC[C@H](NC(=O)CC[C@H](NC(=O)CCCCCCCCCCCCCCCCCCC(=O)O)C(=O)O)C(=O)O)C(=O)N[C@@H](CC(N)=O)C(=O)N[C@@H]([C@@H](C)O)C(=O)N[C@@H](C)C(=O)N[C@@H]([C@@H](C)O)C(=O)N1)[C@@H](C)O)C(=O)N1CCC[C@H]1C(=O)N[C@@H](CO)C(=O)N[C@@H](CO)C(=O)N[C@H](C(=O)N[C@@H](CC(N)=O)C(=O)N[C@H](C(=O)NCC(=O)N1CCC[C@H]1C(=O)N[C@@H](CC(N)=O)C(=O)N[C@H](C(=O)N[C@@H](Cc1ccccc1)C(N)=O)[C@@H](C)O)C(C)C)[C@@H](C)O, synthetic peptide amide)
